Reference: PMC11580989

Target: Rad52^ΔN* (Saccharomyces cerevisiae)
Assay: mass photometry

stoichiometry N: 1
Substance: Saccharomyces cerevisiae Rad51 (from UniProt P25454 1-400) (natural protein)
